This note sets out measurements from patent publication US20200392227A1 (LYVGEN BIOPHARMA, published 2020).

In assay [1] the target is T1, human FcγRI expressed on CHO cells (human, UniProt P12314 16-374).
T1 construct: whole, on cells
The assay can be described thus: FACS, CHO cells expressing FcγRI. The method in brief:
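Trypsin-harvested CHO cells overexpressing each FcγR were incubated 2 h at 4 °C with IgG mutants in 3% BSA/PBS. Bound IgG was detected with PE-labeled anti-human IgG (2 h, 4 °C), then cells were fixed in 2% PFA and analysed by flow cytometry.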

In assay [2] the target is T2, human FcγRIIA(H131) expressed on CHO cells (human, UniProt P12318 34-317).
T2 construct: whole, on cells
T2 sequence (looked up): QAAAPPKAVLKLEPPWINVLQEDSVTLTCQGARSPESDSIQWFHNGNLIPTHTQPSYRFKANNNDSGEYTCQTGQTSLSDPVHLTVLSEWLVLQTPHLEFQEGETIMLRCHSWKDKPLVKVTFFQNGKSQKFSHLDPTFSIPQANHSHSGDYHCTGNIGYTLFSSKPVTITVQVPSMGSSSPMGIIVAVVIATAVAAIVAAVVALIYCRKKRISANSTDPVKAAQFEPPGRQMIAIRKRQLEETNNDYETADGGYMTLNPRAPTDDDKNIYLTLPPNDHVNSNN
Briefly: FACS, CHO cells expressing FcγRIIA(H131). On the procedure: (§1) For FACS analysis of the IgG mutants' binding to different FcγRs, FcγR overexpressing CHO cells were harvested using trypsin-EDTA and were suspended in cold staining buffer (3% BSA in PBS). Test IgG mutants, which were diluted in staining buffer, were added into the cells. The mixture was incubated 4° C. for 2 hours, and then washed twice with cold staining buffer and re-suspended in PE-labeled anti-human IgG followed by incubation at 4° C. for 2 hours. The mixture was washed twice with staining buffer and re-suspended in 2% PFA in PBS for FACS.

The target of assay [3] is T3, human FcRIIIB protein (MednaBio, E1037) (human, UniProt O75015 17-200).
T3 construct: Bought; also called FcγRIIIB; FcgRIIIB
T3 sequence (O75015 17-200 limits assumed): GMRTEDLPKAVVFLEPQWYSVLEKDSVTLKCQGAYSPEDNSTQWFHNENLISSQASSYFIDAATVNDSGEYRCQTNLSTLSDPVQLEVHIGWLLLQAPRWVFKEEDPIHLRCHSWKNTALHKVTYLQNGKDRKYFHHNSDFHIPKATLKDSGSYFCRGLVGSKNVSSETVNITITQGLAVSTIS
Briefly: BLI. Background: BLI is a label-free optical method that tracks binding on a fibre tip over time.

The target of assay [4] is T4, human FcRIIIA-F158 protein (MednaBio, E1036) (human, UniProt P08637 17-208).
T4 construct: Bought; also called FcγRIIIA(F)
T4 sequence (P08637 17-208 limits assumed): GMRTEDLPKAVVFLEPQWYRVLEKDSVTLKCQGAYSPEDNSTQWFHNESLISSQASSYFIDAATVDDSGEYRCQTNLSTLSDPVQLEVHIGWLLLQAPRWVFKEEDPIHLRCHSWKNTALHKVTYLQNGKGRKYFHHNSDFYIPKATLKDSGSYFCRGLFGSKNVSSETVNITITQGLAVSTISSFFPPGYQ
The assay can be described thus: BLI.

The target of assay [5] is T5, human FcRn protein (MednaBio, E1032) (human, UniProt P55899 24-297; P61769 21-119).
T5 construct: Bought; assays at pH 6
T5 sequence (P55899 24-297 limits assumed, form in doubt, chain 1 of 2): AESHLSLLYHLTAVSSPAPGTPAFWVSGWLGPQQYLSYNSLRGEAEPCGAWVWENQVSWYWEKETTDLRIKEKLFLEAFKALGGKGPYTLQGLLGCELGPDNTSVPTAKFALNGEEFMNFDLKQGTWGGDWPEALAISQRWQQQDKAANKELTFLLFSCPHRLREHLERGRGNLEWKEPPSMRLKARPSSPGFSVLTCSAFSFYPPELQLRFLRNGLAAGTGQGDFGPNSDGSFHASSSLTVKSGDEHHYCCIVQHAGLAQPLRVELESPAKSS
T5 sequence (P61769 21-119 limits assumed, form in doubt, chain 2 of 2): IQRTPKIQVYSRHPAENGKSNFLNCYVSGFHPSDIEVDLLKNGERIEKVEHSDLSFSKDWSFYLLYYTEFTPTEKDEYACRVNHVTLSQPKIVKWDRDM
The assay can be described thus: BLI.

Assay [6] has as its target T6, human FcRI protein (MednaBio, E1031) (human, UniProt P12314 16-288, limits assumed).
T6 construct: Bought; loaded on anti-penta-HIS biosensors; also called FcγRI
Briefly: BLI.

For assay [7], the target named is T7, human FcRIIIA-V158 protein (MednaBio, E1035) (human, UniProt P08637 17-208).
T7 construct: Bought; also called FcγRIIIA(V); FcgRIIIA(V)
T7 sequence (P08637 17-208 F176V): as the sequence (P08637 17-208 limits assumed) above, with F160V counted along it
The assay can be described thus: BLI.

Assay [8] has as its target T8, human FcRIIB/C protein (MednaBio, E1034) (human, UniProt P31994 43-217, limits assumed).
T8 construct: Bought as FcRIIB/C; also called FcγRIIB; CD32B
T8 sequence (looked up): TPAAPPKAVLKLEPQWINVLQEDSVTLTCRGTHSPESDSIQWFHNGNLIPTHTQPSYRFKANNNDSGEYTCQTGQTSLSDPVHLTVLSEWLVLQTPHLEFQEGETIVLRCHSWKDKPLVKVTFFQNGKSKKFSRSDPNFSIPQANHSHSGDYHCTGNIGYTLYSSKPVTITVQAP
The assay can be described thus: BLI.

The target in assay [9] is T9, human FcRIIA protein (MednaBio, E1033) (human, UniProt P12318 34-218, limits assumed).
T9 construct: Bought; also called FcγRIIA
T9 sequence (looked up): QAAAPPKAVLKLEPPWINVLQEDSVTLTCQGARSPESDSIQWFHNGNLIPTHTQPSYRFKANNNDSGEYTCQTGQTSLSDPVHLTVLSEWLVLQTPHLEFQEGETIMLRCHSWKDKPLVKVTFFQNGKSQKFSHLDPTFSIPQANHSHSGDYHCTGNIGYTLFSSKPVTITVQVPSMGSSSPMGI
Briefly: BLI.

The target in assay [10] is T10, human FcγRIIA(R131) expressed on CHO cells (human, UniProt P12318 34-317).
T10 construct: whole, on cells
T10 sequence (looked up): T2 sequence (looked up) with H134R
The assay can be described thus: FACS, CHO cells expressing FcγRIIA(R131). The method, then:
as §1
A general note: Flow cytometry measures light scatter and fluorescence of single cells or particles in a stream.

Assay [11] concerns the target T3, human FcRIIIB protein (MednaBio, E1037). The assay can be described thus: BLI. The method in brief:
(§2)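 Binding was measured by biolayer interferometry on an Octet Red96 System. Commercial human Fc receptor proteins were loaded at 20 μg/mL onto anti-penta-HIS biosensors, which were then dipped into an 8-point 1:3 dilution series of test IgG starting at 300 nM in PBS with 0.1% BSA and 0.02% Tween-20, at pH 7.2 for Fcγ receptors and pH 6 for FcRn. Kd, kon and koff were obtained by global fitting, with data fitted to a 1:1 binding model.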
The source holds these as a separate data set.

Assay [12] has as its target T4, human FcRIIIA-F158 protein (MednaBio, …). The assay can be described thus: BLI. The method in brief: as §2
This is another data set of the same source.

In assay [13] the target is T5, human FcRn protein (MednaBio, E1032). The assay can be described thus: BLI. The method in brief: as §2
The source holds these as a separate data set.

Assay [14] has as its target T6, human FcRI protein (MednaBio, E1031). Briefly: BLI. The method in brief:
as §2
The source holds these as a separate data set.

For assay [15], the target named is T7, human FcRIIIA-V158 protein (MednaBio, …). Briefly: BLI. The method in brief:
as §2
This is another data set of the same source.

In assay [16] the target is T8, human FcRIIB/C protein (MednaBio, E1034). The assay can be described thus: BLI. The method in brief: as §2
The source holds these as a separate data set.

For assay [17], the target named is T9, human FcRIIA protein (MednaBio, E1033). The assay can be described thus: BLI. The procedure, abridged:
as §2
The source holds these as a separate data set.

Assay [18] has as its target T2, human FcγRIIA(H131) expressed on CHO …. The assay can be described thus: FACS, CHO cells expressing FcγRIIA(H131). The method, then:
FIGS. 1A-1W are charts showing binding activity of various IgG variants as indicated to different types of Fcγ receptors expressed on CHO-K1 cells at the various concentrations as indicated. The concentrations of each IgG variant, from left to right, are 0 μg/ml, 0.3 μg/ml, 1 μg/ml, 3 μg/ml, and 10 μg/ml in FIGS. 1A-1C, 1E-J, 1L-1M, 1P-1R, and 1T-1V. For FIGS. 1D, 1K, 10, 1S, and 1w the bars, from left to right, correspond to the following concentrations of IgG variant: 0.3 μg/ml, 1 μg/ml, 3 μg/ml, and 10 μg/ml.
as §1
This is another data set of the same source.

Where a chain is given by its changes, count along the chain named. Where two headings read alike, the source gives them in different places.

T6 sequence (P12314 16-288 limits assumed): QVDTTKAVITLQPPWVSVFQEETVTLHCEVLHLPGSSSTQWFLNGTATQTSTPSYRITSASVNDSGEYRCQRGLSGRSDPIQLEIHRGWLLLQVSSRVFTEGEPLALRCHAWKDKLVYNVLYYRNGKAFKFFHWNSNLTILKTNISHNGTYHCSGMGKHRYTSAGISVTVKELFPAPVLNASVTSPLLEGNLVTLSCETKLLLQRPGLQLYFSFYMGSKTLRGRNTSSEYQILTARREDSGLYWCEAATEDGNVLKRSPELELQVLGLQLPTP
T1 sequence (P12314 16-374): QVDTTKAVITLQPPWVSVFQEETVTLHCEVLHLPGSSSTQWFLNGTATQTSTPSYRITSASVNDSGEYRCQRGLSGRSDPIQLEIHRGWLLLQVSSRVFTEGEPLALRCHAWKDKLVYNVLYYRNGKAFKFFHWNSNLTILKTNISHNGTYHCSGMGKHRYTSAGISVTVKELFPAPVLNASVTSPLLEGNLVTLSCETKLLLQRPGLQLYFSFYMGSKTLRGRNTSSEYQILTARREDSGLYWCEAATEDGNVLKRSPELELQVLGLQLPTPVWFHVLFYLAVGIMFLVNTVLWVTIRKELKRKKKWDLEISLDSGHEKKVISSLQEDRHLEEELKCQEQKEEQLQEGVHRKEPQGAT

B1: anti-CD137 IgG4 with Fc variant G4m2 (antibody)
heavy: EVQLVQSGAEVKKPGESLRISCKGSGYSFSTYWISWVRQMPGKGLEWMGKIYPGDSYTNYSPSFQGQVTISADKSISTAYLQWSSLKASDTAMYYCARGYGIFDYWGQGTLVTVSSASTKGPSVFPLAPCSRSTSESTAALGCLVKDYFPEPVTVSWNSGALTSGVHTFPAVLQSSGLYSLSSVVTVPSSSLGTKTYTCNVDHKPSNTKVDKRVESKYGPPCPPCPAPEFLGPSVFLFPPKPKDTLMISRTPEVTCVVVDVSQEDPEVQFNWYVDGVEVHNAKTKPREEQFNSTYRVVSVLTVLHQDWLNGKEYKCKVSNKGLPSSIEKTISKAKGQPREPQVYTLPPSQEEMTKNQVSLTCLVKGFYPSDIAVEWESNGQPENNYKTTPPVLDSDGSFFLYSRLTVDKSRWQEGNVFSCSVMHEALHNHYTQKSLSLSLGK
light: SYELTQPPSVSVSPGQTASITCSGDNIGDQYAHWYQQKPGQSPVLVIYQDKNRPSGIPERFSGSNSGNTATLTISGTQAMDEADYYCATYTGFGSLAVFGGGTKLTVLGQPKAAPSVTLFPPSSEELQANKATLVCLISDFYPGAVTVAWKADSSPVKAGVETTTPSKQSNNKYAASSYLSLTPEQWKSHRSYSCQVTHEGSTVEKTVAPTECS
notes: copies: 2 + 2
As a reminder, the Kd is the equilibrium constant for the complex coming apart. A lower Kd goes with a tighter complex. The term koff denotes the rate constant with which the complex falls apart. Lower therefore signals slow dissociation. Broadly, the kon is a measure of how fast the partners come together. With B1, the binding result in [1] was “no binding (tested: 10 ug/ml)”; in assay [2], “no binding (tested: 10 ug/ml)”; in assay [3], “no binding (tested: 300 nM)”; in assay [4], “no binding (tested: 300 nM)”; in assay [6] it was “no binding (tested: 300 nM)”; in assay [7], “no binding (tested: 300 nM)”. Besides, the binding result was “no binding (tested: 300 nM)” in assay [9] and “no binding (tested: 10 ug/ml)” in [10]. The Kd in assay [5] was 9.8 nM; in [8] it was 150 nM. The results for the koff in assay [5] and in assay [8] were 0.013 s⁻¹ and 0.046 s⁻¹, respectively. Also, the kon stood at 1.4e+06 M⁻¹ s⁻¹ in assay [5] and 310000 M⁻¹ s⁻¹ in assay [8].

B2: anti-CD137 IgG1 with Fc variant G1m27 (antibody)
heavy: EVQLVQSGAEVKKPGESLRISCKGSGYSFSTYWISWVRQMPGKGLEWMGKIYPGDSYTNYSPSFQGQVTISADKSISTAYLQWSSLKASDTAMYYCARGYGIFDYWGQGTLVTVSSASTKGPSVFPLAPSSKSTSGGTAALGCLVKDYFPEPVTVSWNSGALTSGVHTFPAVLQSSGLYSLSSVVTVPSSSLGTQTYICNVNHKPSNTKVDKKVEPKSCDKTHTCPPCPAPELLGPSVFLFPPKPKDTLMISRTPEVTCVVVDVEHEDPEVKFNWYVDGVEVHNAKTKPREEQYNSTYRVVSVLTVLHQDWLNGKEYKCKVSNKALPAPIEKTISKAKGQPREPQVYTLPPSREEMTKNQVSLTCLVKGFYPSDIAVEWESNGQPENNYKTTPPVLDSDGSFFLYSKLTVDKSRWQQGNVFSCSVMHEALHNHYTQKSLSLSPGK
light: B1 light
notes: copies: 2 + 2
As for B2, the binding result in assay [11] is “no binding (tested: 300 nM)”; in [12], “no binding (tested: 300 nM)”; in [14], “no binding (tested: 300 nM)”; in [15], “no binding (tested: 300 nM)”; in assay [17], “no binding (tested: 300 nM)”; in assay [18] it was “no binding (tested: 10 ug/ml)”. Also, the Kd in [13] worked out at 16 nM; in [16], 410 nM. Also, the koff in assay [13] amounted to 0.01 s⁻¹; in assay [16], 0.1 s⁻¹. Moreover, the values for the kon in [13] and in [16] were 650000 M⁻¹ s⁻¹ and 260000 M⁻¹ s⁻¹, respectively.

B3: anti-CD137 IgG1 with Fc variant G1m28 (antibody)
heavy: B2 heavy with E265S, L326F
light: B1 light
notes: copies: 2 + 2
In the case of B3, the binding result in [11] is given as “no binding (tested: 300 nM)”; in assay [12], “no binding (tested: 300 nM)”; in assay [15], “no binding (tested: 300 nM)”; in assay [17], “no binding (tested: 300 nM)”; in [18], “no binding (tested: 10 ug/ml)”; in assay [10], “no binding (tested: 10 ug/ml)”. Also, the Kd was 17 nM in [13], 240 nM in assay [14] and 410 nM in assay [16]. The koff in assay [13] worked out at 0.011 s⁻¹; in assay [14], 0.16 s⁻¹; in assay [16], 0.2 s⁻¹. Also, the on-rate (kon) in assay [13] is 650000 M⁻¹ s⁻¹; in [14], 640000 M⁻¹ s⁻¹; in [16], 480000 M⁻¹ s⁻¹.
